The source of these data is patent publication US20260207704A1, “STAPLED PEPTIDES AND METHODS THEREOF” (priority 2022, published 2026).

*1 amine or outer side, *2 acyl side, *3 side chain or, on linkers, in order; H or OH if unused. Bridges are numbered along the chain shown (N, C = ends). Primed or numbered codes have the meaning given here. [ ]: non-standard residue; d: D form. PyrS2(6) = (S)-3-amino-1-((pent-4-en-1-yloxy)carbonyl)pyrrolidine-3-carboxylic acid, stapled with another olefin-containing amino acid residue through the olefin group, O=C(OCCCC=[*:3])N1CC[C@@](N[*:1])(C(=O)[*:2])C1; B5(4) = 2-amino-2-(pent-4-en-1-yl)hept-6-enoic acid, stapled through each of its two olefin groups with other olefin-containing amino acid residues, O=C(C(CCCC=[*:3])(CCCC=[*:4])N[*:1])[*:2]; PyrS2(3) = (S)-3-amino-1-((pent-4-en-1-yloxy)carbonyl)pyrrolidine-3-carboxylic acid, olefin residue, C=CCCCOC(=O)N1CC[C@@](N[*:1])(C(=O)[*:2])C1; PyrS2(5) = (S)-3-amino-1-((pent-4-en-1-yloxy)carbonyl)pyrrolidine-3-carboxylic acid, C=CCCCOC(=O)N1CC[C@@](N[*:1])(C(=O)[*:2])C1; B5(5) = 2-amino-2-(pent-4-en-1-yl)hept-6-enoic acid (two olefin arms), C=CCCCC(CCCC=C)(N[*:1])C(=O)[*:2]; B5(3) = 2-amino-2-(pent-4-en-1-yl)hept-6-enoic acid, two olefin arms, C=CCCCC(CCCC=C)(N[*:1])C(=O)[*:2]; 2F3MeF″ = aromatic residue, Cc1cccc(C[C@H](N[*:1])C(=O)[*:2])c1F; Phe(3-COOH) = N[C@@H](Cc1cccc(C(=O)O)c1)C(=O)O; Bta = N[C@@H](Cc1csc2ccccc12)C(=O)O; αAllylPro = C=CC[C@@]1(C(=O)O)CCCN1; tBuAla = CC(C)(C)C[C@H](N)C(=O)O; 3Thi = N[C@@H](Cc1ccsc1)C(=O)O; Thr(ol) = C[C@@H](O)[C@H](N)CO; TriAzLys(3) = not defined here; 2F3MeF(4) = Phe analogue; Nle = CCCC[C@H](N)C(=O)O; Orn = NCCC[C@H](N)C(=O)O; AsnR = not defined here; GlnR = not defined here; sAla = not defined here; Aib = CC(C)(N)C(=O)O Bounds are passed on as bounds.

The target of test [1] is beta-catenin (human). Nature of the test: fluorescence polarization. For orientation: In fluorescence polarisation assays a small probe gives low polarisation when free and higher when bound to something large.
In test [2] the target is beta-catenin (human). Nature of the test: cell-based or functional assay.

beta-catenin (human), sequence (B6V8E6 146-665 limits assumed): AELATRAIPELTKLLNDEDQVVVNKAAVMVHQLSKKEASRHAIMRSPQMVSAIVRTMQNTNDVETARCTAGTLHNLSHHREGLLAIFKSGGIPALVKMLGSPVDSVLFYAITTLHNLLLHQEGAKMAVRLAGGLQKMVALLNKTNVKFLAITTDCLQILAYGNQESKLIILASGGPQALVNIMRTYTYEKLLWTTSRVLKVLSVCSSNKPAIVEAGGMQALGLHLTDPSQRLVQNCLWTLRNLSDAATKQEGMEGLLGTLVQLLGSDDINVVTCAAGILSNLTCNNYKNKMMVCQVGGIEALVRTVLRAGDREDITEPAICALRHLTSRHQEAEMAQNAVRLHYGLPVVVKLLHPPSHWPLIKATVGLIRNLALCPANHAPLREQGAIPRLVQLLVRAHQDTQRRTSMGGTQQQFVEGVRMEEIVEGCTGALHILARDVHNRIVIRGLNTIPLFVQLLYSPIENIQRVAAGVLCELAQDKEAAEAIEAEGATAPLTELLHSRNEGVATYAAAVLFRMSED

B1: I-57 (peptide)
peptide: Ac-[αAllylPro]D[tBuAla][B5(3)]D[Phe(3-COOH)]AAFK[PyrS2(3)][2F3MeF″][Bta][GlnR]A-NH2
modifications: bridge 10-14; not fully specified (bridges); printed as Ac-PL3-Asp-Npg-B5-Asp-3COOHF-Ala-Ala-Phe-Lys*3-PyrS2-2F3MeF-BztA-GlnR*3-Ala-NH2; reading uncertain
With B1, the IC50 – broadly, the concentration at which inhibition is half-maximal – with beta-catenin (human) [1] is below 50 nM. The NanoBRET Abs IC50 (bin >1.5 uM) with beta-catenin (human) [2] is below 3000 nM.

B2: I-71 (peptide)
peptide: Ac-[αAllylPro]D[tBuAla][B5(3)]D[Phe(3-COOH)][Nle]AFK[PyrS2(3)][2F3MeF″][Bta][GlnR]A-NH2
modifications: bridge 10-14; not fully specified (bridges); printed as Ac-PL3-Asp-Npg-B5-Asp-3COOHF-nLeu-Ala-Phe-Lys*3-PyrS2-2F3MeF-BztA-GlnR*3-Ala-NH2; reading uncertain
B2 yielded an IC50 with beta-catenin (human) [1] below 50 nM. The molecule further registered a NanoBRET Abs IC50 (bin >1.5 uM) in the test with beta-catenin (human) [2] below 3000 nM.

B3: I-33 (peptide)
peptide: Ac-[αAllylPro]D[tBuAla][B5(4)]D[Phe(3-COOH)]AAF[GlnR][PyrS2(6)][3Thi][Bta]K-NH2
modifications: bridge 10-14; not fully specified (bridges); printed as Ac-PL3-Asp-Npg-B5-Asp-3COOHF-Ala-Ala-Phe-GlnR*3-PyrS2-3Thi-BztA-Lys*3-NH2; reading uncertain
The molecule B3 registered an IC50 with beta-catenin (human) [1] below 50 nM. In addition, in the test with beta-catenin (human) [2], the NanoBRET Abs IC50 (bin >3.0 uM) was below 10000 nM.

B4: I-37 (peptide)
peptide: Ac-[αAllylPro]D[tBuAla][B5(5)]D[Phe(3-COOH)]AAF[Orn][PyrS2(5)][3Thi][Bta][GlnR]-NH2
modifications: bridge 10-14; not fully specified (bridges); printed as Ac-PL3-Asp-Npg-B5-Asp-3COOHF-Ala-Ala-Phe-Orn*3-PyrS2-3Thi-BztA-GlnR*3-NH2; reading uncertain
As for B4, the IC50 with beta-catenin (human) [1] is below 50 nM. The same molecule had a NanoBRET Abs IC50 (bin >3.0 uM) in the test with beta-catenin (human) [2] below 10000 nM.

B5: I-31 (peptide)
peptide: Ac-[αAllylPro]D[tBuAla][B5(4)]D[Phe(3-COOH)][TriAzLys(3)]AF[sAla][PyrS2(6)][2F3MeF(4)][Bta]Q-NH2
modifications: triazole 7-10; not fully specified (bridges); printed as Ac-PL3-Asp-Npg-B5-Asp-3COOHF-TriAzLys*3-Ala-Phe-sAla*3-PyrS2-2F3MeF-BztA-Gln-NH2; reading uncertain
The molecule B5 yielded an IC50 with beta-catenin (human) [1] below 50 nM. Also, the NanoBRET Abs IC50 in the test with beta-catenin (human) [2] is above 10000 nM.

B6: I-42 (peptide)
peptide: Ac-[αAllylPro]D[tBuAla][B5(5)]D[Phe(3-COOH)]AAFK[PyrS2(5)][3Thi][Bta][GlnR]A-NH2
modifications: bridge 10-14; reading uncertain; also: PL3/B5/PyrS2 staple links not placed, printed as Ac-PL3-Asp-Npg-B5-Asp-3COOHF-Ala-Ala-Phe-Lys*3-PyrS2-3Thi-BztA-GlnR*3-Ala-NH2
Molecule B6 displayed a half-maximal inhibitory concentration (IC50) in the test with beta-catenin (human) [1] below 50 nM. The NanoBRET Abs IC50 (bin >1.5 uM) with beta-catenin (human) [2] was below 3000 nM.

B7: I-60 (peptide)
peptide: Ac-[αAllylPro]D[tBuAla][B5(3)]D[Phe(3-COOH)]QAFK[PyrS2(3)][2F3MeF″][Bta][GlnR]A-NH2
modifications: bridge 10-14; not fully specified (bridges); printed as Ac-PL3-Asp-Npg-B5-Asp-3COOHF-Gln-Ala-Phe-Lys*3-PyrS2-2F3MeF-BztA-GlnR*3-Ala-NH2; reading uncertain
In turn, B7 yielded an IC50 with beta-catenin (human) [1] below 50 nM. Moreover, the NanoBRET Abs IC50 (bin >3.0 uM) with beta-catenin (human) [2] is below 10000 nM.

B8: I-63 (peptide)
peptide: Ac-[αAllylPro]D[tBuAla][B5(3)]D[Phe(3-COOH)]AAFK[PyrS2(3)][3Thi][Bta][GlnR][Thr(ol)]
modifications: bridge 10-14; not fully specified (bridges); printed as Ac-PL3-Asp-Npg-B5-Asp-3COOHF-Ala-Ala-Phe-Lys*3-PyrS2-3Thi-BztA-GlnR*3-Throl; reading uncertain
For B8, the IC50 with beta-catenin (human) [1] was below 50 nM. Moreover, in the test with beta-catenin (human) [2], the NanoBRET Abs IC50 (bin >3.0 uM) was below 10000 nM.

B9: I-39 (peptide)
peptide: Ac-[αAllylPro]D[tBuAla][B5(5)]D[Phe(3-COOH)]AAF[Orn][PyrS2(5)][3Thi][Bta][AsnR]-NH2
modifications: bridge 10-14; not fully specified (bridges); printed as Ac-PL3-Asp-Npg-B5-Asp-3COOHF-Ala-Ala-Phe-Orn*3-PyrS2-3Thi-BztA-AsnR*3-NH2; reading uncertain
With B9, the IC50 with beta-catenin (human) [1] is below 50 nM. The molecule further came in with a NanoBRET Abs IC50 in the test with beta-catenin (human) [2] above 10000 nM.

B10: I-34 (peptide)
peptide: Ac-[αAllylPro]D[tBuAla][B5(5)]D[Phe(3-COOH)]AAFK[PyrS2(5)][3Thi][Bta][AsnR]-NH2
modifications: bridge 10-14; not fully specified (bridges); printed as Ac-PL3-Asp-Npg-B5-Asp-3COOHF-Ala-Ala-Phe-Lys*3-PyrS2-3Thi-BztA-AsnR*3-NH2; reading uncertain
Molecule B10 showed a 50% inhibitory concentration (IC50) in the test with beta-catenin (human) [1] below 50 nM. The molecule also had a NanoBRET Abs IC50 (bin >3.0 uM) in the test with beta-catenin (human) [2] below 10000 nM.

B11: I-62 (peptide)
peptide: Ac-[αAllylPro]D[tBuAla][B5(3)]D[Phe(3-COOH)]AAFK[PyrS2(3)][3Thi][Bta][GlnR][Thr(ol)]
modifications: bridge 10-14; not fully specified (bridges); printed as Ac-PL3-Asp-Npg-B5-Asp-3COOHF-Ala-Ala-Phe-Lys*3-PyrS2-3Thi-BztA-GlnR*3-Throl; reading uncertain
Take B11: in the test with beta-catenin (human) [1], the 50% inhibitory concentration (IC50) was below 50 nM. Besides, the NanoBRET Abs IC50 (bin >3.0 uM) with beta-catenin (human) [2] was below 10000 nM.

B12: I-43 (peptide)
peptide: Ac-[αAllylPro]D[tBuAla][B5(5)]D[Phe(3-COOH)]AAF[GlnR][PyrS2(5)][3Thi][Bta]KA-NH2
modifications: bridge 10-14; reading uncertain; also: PL3/B5/PyrS2 staple links not placed, printed as Ac-PL3-Asp-Npg-B5-Asp-3COOHF-Ala-Ala-Phe-GlnR*3-PyrS2-3Thi-BztA-Lys*3-Ala-NH2
Turning to B12, the IC50 with beta-catenin (human) [1] is below 50 nM. This molecule also had a NanoBRET Abs IC50 (bin >1.5 uM) with beta-catenin (human) [2] below 3000 nM.

B13: I-64 (peptide)
peptide: Ac-[αAllylPro]D[tBuAla][B5(3)]D[Phe(3-COOH)]AAFK[PyrS2(3)][3Thi][Bta][GlnR]-Prool
modifications: bridge 10-14; not fully specified (bridges); printed as Ac-PL3-Asp-Npg-B5-Asp-3COOHF-Ala-Ala-Phe-Lys*3-PyrS2-3Thi-BztA-GlnR*3-Prool; reading uncertain
In turn, B13 returned a 50% inhibitory concentration (IC50) with beta-catenin (human) [1] below 50 nM. For the same molecule, in the test with beta-catenin (human) [2], the NanoBRET Abs IC50 (bin >1.5 uM) was below 3000 nM.

B14: I-68 (peptide)
peptide: Ac-[αAllylPro]D[tBuAla][B5(3)]D[Phe(3-COOH)][Aib]AFK[PyrS2(3)][2F3MeF″][Bta][GlnR]A-NH2
modifications: bridge 10-14; not fully specified (bridges); printed as Ac-PL3-Asp-Npg-B5-Asp-3COOHF-Aib-Ala-Phe-Lys*3-PyrS2-2F3MeF-BztA-GlnR*3-Ala-NH2; reading uncertain
B14 came in with an IC50 with beta-catenin (human) [1] below 50 nM. This molecule also displayed a NanoBRET Abs IC50 (bin >1.5 uM) in the test with beta-catenin (human) [2] below 3000 nM.

B15: I-32 (peptide)
peptide: Ac-[αAllylPro]D[tBuAla][B5(4)]D[Phe(3-COOH)]AAFK[PyrS2(6)][3Thi][Bta][GlnR]-NH2
modifications: bridge 10-14; not fully specified (bridges); printed as Ac-PL3-Asp-Npg-B5-Asp-3COOHF-Ala-Ala-Phe-Lys*3-PyrS2-3Thi-BztA-GlnR*3-NH2; reading uncertain
As to B15, the IC50 with beta-catenin (human) [1] is below 50 nM. In addition, the NanoBRET Abs IC50 with beta-catenin (human) [2] is below 1500 nM.

B16: I-55 (peptide)
peptide: Ac-[αAllylPro]D[tBuAla][B5(3)]D[Phe(3-COOH)]AAFK[PyrS2(3)][2F3MeF″][Bta][GlnR]-NH2
modifications: bridge 10-14; not fully specified (bridges); printed as Ac-PL3-Asp-Npg-B5-Asp-3COOHF-Ala-Ala-Phe-Lys*3-PyrS2-2F3MeF-BztA-GlnR*3-NH2; reading uncertain
B16 displayed an IC50 in the test with beta-catenin (human) [1] below 50 nM. For the same molecule, the NanoBRET Abs IC50 (bin >1.5 uM) in the test with beta-catenin (human) [2] is below 3000 nM.

B17: I-38 (peptide)
peptide: Ac-[αAllylPro]D[tBuAla][B5(5)]D[Phe(3-COOH)]AAF[GlnR][PyrS2(5)][3Thi][Bta][Orn]-NH2
modifications: bridge 10-14; not fully specified (bridges); printed as Ac-PL3-Asp-Npg-B5-Asp-3COOHF-Ala-Ala-Phe-GlnR*3-PyrS2-3Thi-BztA-Orn*3-NH2; reading uncertain
B17 yielded an IC50 with beta-catenin (human) [1] below 50 nM. The molecule also yielded a NanoBRET Abs IC50 (bin >3.0 uM) with beta-catenin (human) [2] below 10000 nM.

B18: I-56 (peptide)
peptide: Ac-[αAllylPro]D[tBuAla][B5(3)]D[Phe(3-COOH)]AAFK[PyrS2(3)][2F3MeF″][Bta][AsnR]-NH2
modifications: bridge 10-14; not fully specified (bridges); printed as Ac-PL3-Asp-Npg-B5-Asp-3COOHF-Ala-Ala-Phe-Lys*3-PyrS2-2F3MeF-BztA-AsnR*3-NH2; reading uncertain
The molecule B18 had an IC50 in the test with beta-catenin (human) [1] below 50 nM. The same molecule gave a NanoBRET Abs IC50 (bin >3.0 uM) in the test with beta-catenin (human) [2] below 10000 nM.

B19: I-61 (peptide)
peptide: Ac-[αAllylPro]D[tBuAla][B5(3)]D[Phe(3-COOH)]QAFK[PyrS2(3)][2F3MeF″][Bta][AsnR]A-NH2
modifications: bridge 10-14; not fully specified (bridges); printed as Ac-PL3-Asp-Npg-B5-Asp-3COOHF-Gln-Ala-Phe-Lys*3-PyrS2-2F3MeF-BztA-AsnR*3-Ala-NH2; reading uncertain
Take B19: the IC50 in the test with beta-catenin (human) [1] is below 50 nM. For the same molecule, the NanoBRET Abs IC50 with beta-catenin (human) [2] is above 10000 nM.
